According to patent US20220169747A1 (CERTIS THERAPEUTICS, published 2022):
Bridges are numbered along the chain shown (N, C = ends).

T1: control irrelevant peptide H-LEEKKGNYVVTDHC-NH2 coupled to KLH (also: coupled to KLH)
T1 construct: Synthetic negative control; also called control peptide; negative control peptide-KLH
T1 peptide: H-LEEKKGNYVVTDHC-NH2

T2: linear HER2 peptide immunogen H-CPLHNQEVTAEDGTQR-NH2 coupled to KLH (also: coupled to KLH)
T2 construct: Synthetic peptide; also called linear peptide; KLH-linear peptide
T2 peptide: H-CPLHNQEVTAEDGTQR-NH2

T3: cyclic HER2 peptide immunogen H-GCPLHNQEVTAEDGTQRC-NH2 coupled to KLH (human, disulfide 2-18 (inferred); also: coupled to KLH)
T3 construct: also called cyclised peptide; circularised peptide
T3 peptide: H-GCPLHNQEVTAEDGTQRC-NH2

T4: recombinant ErbB4/HER4 ECD (UniProt Q15303 26-651, limits assumed)
T4 construct: extracellular domain; also called ErbB4 ECD
T4 sequence (looked up): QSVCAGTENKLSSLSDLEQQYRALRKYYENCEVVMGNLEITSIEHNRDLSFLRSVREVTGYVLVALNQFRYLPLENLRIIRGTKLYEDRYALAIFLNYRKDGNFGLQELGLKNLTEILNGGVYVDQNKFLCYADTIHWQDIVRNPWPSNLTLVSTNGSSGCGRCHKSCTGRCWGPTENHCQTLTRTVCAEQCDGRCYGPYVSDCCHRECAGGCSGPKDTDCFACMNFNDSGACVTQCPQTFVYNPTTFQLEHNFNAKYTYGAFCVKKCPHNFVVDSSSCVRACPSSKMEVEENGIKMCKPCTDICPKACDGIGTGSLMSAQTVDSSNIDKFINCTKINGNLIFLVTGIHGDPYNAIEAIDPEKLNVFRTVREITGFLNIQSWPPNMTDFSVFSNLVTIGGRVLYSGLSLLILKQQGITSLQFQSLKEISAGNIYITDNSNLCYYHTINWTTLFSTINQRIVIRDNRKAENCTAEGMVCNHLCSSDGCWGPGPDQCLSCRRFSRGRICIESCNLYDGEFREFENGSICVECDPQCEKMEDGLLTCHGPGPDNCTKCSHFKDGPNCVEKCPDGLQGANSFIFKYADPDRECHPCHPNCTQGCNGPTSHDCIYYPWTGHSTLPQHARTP

B1: mAb106 (antibody, IgG1, V domains shown)
VH: QIQLVQSGPELKKPGETVKISCKASGYTFTDYGMNWVKQAPGKGLKWMGWINTYTGKPTYDDDFKGRFAFSLETSASTAYLQINNLKNEDMATYFCARRFLNTVAGRSVYFDYWGQGTTLTVSS
VL: QIVLTQSPALMSVSPGEKVTMTCSVSSSVGSMYWYQQKPRSSPKPWIYLTSNLASGVPPRFSGSGSGTSYSLTISSMEGEDAATYYCQQWSSNPPTFGAGTKLELKR
notes: Murine monoclonal purified from hybridoma supernatant
B2: mAb104 (antibody, IgG1, V domains shown)
VH: EVQLQQSGPELVKPGASVKISCKASGYSFTGYFMHWVRQSHVRSLEWIGRINPYNGDIRYNQNFKDKASLTVDKSSSTAYMELHRLTSEDSAVFYCASLNFAYWGQGTPVTVSA
VL: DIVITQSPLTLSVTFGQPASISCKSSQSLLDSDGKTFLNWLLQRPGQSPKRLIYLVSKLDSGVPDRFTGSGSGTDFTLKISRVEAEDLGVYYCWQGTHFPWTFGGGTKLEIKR
notes: as for B1

How the values were obtained:
[1] = target: T1, control irrelevant peptide …; test: ELISA, antigen on the plate, anti-mouse Ig-alkaline phosphatase, pNPP, A405nm
Protocol: (§1) Polystyrene 96-well plates were coated with 3% FCS in PBS for one hour at RT. A final peptide concentration of 1 mg/mL was achieved by diluting the peptide in 0.1% acetic acid. This peptide solution was further diluted to 30 μg/ml in 3% FCS-PBS. Plates were incubated with the linear or cyclic peptide immunogen coupled to KLH, HER2-ECD or negative control peptide-KLH, in dilution buffer (3% FCS-PBS) for one hour at RT. […] Following washing, plates were then incubated with anti-mouse Ig-Alkaline phosphatase (Sigma A-3688), (1:3000 dilutions) for one hour at RT.

[2] = target: T2, linear HER2 peptide immunogen …; test: ELISA, antigen on the plate, antibody at 10 ug/mL, anti-mouse Ig-alkaline phosphatase, pNPP, A405nm
Protocol: as §1

[3] = target: T3, cyclic HER2 peptide immunogen …; test: as above
Protocol: as §1

[4] = target: T5, recombinant ErbB3/HER3 ECD (UniProt P21860 20-643, limits assumed); test: ELISA, plate coated with recombinant HER3 ECD, anti-mouse antibody-alkaline phosphatase, pNPP, A405 nm
T5 construct: extracellular domain; also called ErbB3 ECD
Protocol: (§2) Polystyrene 96-well plates were coated with […], 3 μg/mL recombinant ErbB2 ECD, ErbB3 ECD, ErbB4 ECD or EGFR501 in PBS overnight at 4° C. The plates were blocked with 3% FCS in PBS for one hour at room temperature (RT). Plates were incubated with 10 μg/mL serially diluted purified antibody along with appropriate controls for one hour at RT. Following washing three times, plates were incubated with anti-mouse IgG AP conjugate (1:2000 dilutions) for one hour at RT.

[5] = target: T4, recombinant ErbB4/HER4 ECD; test: ELISA, plate coated with recombinant HER4 ECD, anti-mouse antibody-alkaline phosphatase, pNPP, A405 nm
Protocol: as §2

[6] = target: T6, recombinant sEGFR ectodomain (EGFR501) (UniProt P00533 25-645, limits assumed); test: ELISA, plate coated with recombinant sEGFR ectodomain, anti-mouse antibody-alkaline phosphatase, pNPP, A405 nm
T6 construct: extracellular domain; also called EGFR/HER1 ectodomain
Protocol: as §2

binding result [1] | binding result [2] | binding result [3] | binding result [4] | binding result [5] | binding result [6] | Binder
no binding (tested: 10 ug/mL) | binds | binds | – | – | – | B1
no binding (tested: 10 ug/mL) | binds | binds | no binding (tested: 10000 ng/ml) | no binding (tested: 10000 ng/ml) | no binding (tested: 10000 ng/ml) | B2
